Laboratory results from IntAct's records for PubMed 20453860.

B1: Vacuolar protein sorting-associated protein 33 (Saccharomyces cerevisiae), P20795 (parent)
chain: MNRFWNTKKFSLTNADGLCATLNEISQNDEVLVVQPSVLPVLNSLLTFQDLTQSTPVRKITLLDDQLSDDLPSALGSVPQMDLIFLIDVRTSLRLPPQLLDAAQKHNLSSLHIIYCRWKPSFQNTLEDTEQWQKDGFDLNSKKTHFPNVIESQLKELSNEYTLYPWDLLPFPQIDENVLLTHSLYNMENVNMYYPNLRSLQSATESILVDDMVNSLQSLIFETNSIITNVVSIGNLSKRCSHLLKKRIDEHQTENDLFIKGTLYGERTNCGLEMDLIILERNTDPITPLLTQLTYAGILDDLYEFNSGIKIKEKDMNFNYKEDKIWNDLKFLNFGSIGPQLNKLAKELQTQYDTRHKAESVHEIKEFVDSLGSLQQRQAFLKNHTTLSSDVLKVVETEEYGSFNKILELELEILMGNTLNNDIEDIILELQYQYEVDQKKILRLICLLSLCKNSLREKDYEYLRTFMIDSWGIEKCFQLESLAELGFFTSKTGKTDLHITTSKSTRLQKEYRYISQWFNTVPIEDEHAADKITNENDDFSEATFAYSGVVPLTMRLVQMLYDRSILFHNYSSQQPFILSREPRVSQTEDLIEQLYGDSHAIEESIWVPGTITKKINASIKSNNRRSIDGSNGTFHAAEDIALVVFLGGVTMGEIAIMKHLQKILGKKGINKRFIIIADGLINGTRIMNSIS
partner: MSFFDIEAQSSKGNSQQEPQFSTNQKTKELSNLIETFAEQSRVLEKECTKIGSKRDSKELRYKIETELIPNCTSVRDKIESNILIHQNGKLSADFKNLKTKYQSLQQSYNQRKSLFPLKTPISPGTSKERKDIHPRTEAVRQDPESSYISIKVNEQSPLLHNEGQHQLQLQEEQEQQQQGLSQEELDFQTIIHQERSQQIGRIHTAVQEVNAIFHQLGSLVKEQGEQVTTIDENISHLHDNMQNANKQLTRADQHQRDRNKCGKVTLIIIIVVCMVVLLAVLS

Variants of: B1
Conditions: with vam3_yeast VAM3, Q12241

Row | effect of a mutation on the interaction | Variant
1 | decreasing interaction | D88K
2 | decreasing interaction | L184P
